In US8030025B2 one finds IC50, IC90 and Tie2 phosphorylation in mouse lung endothelium data, which are given here for four substances.

Assay [1] concerns the target biotinylated human angiopoietin 1 (human) (UniProt Q15389). The assay is described as follows: HTRF neutralization; biotin-hAng1 vs huTie-2-Fc-APC. In general terms: TR-FRET usually uses a lanthanide donor and a delayed reading to cut background.
For assay [2], the target named is biotinylated human angiopoietin 2 (human) (UniProt O15123). The assay is described as follows: HTRF neutralization; biotin-hAng2 vs huTie-2-Fc-APC.
Assay [3] concerns the target biotinylated human angiopoietin 1 (human) (UniProt Q15389). The experiment in a line: angiopoietin:Tie2 neutralization HTRF; biotin-hAng1 vs Tie2-APC.
The target in assay [4] is biotinylated human angiopoietin 2 (human) (UniProt O15123). The experiment in a line: angiopoietin:Tie2 neutralization HTRF; biotin-hAng2 vs Tie2-APC.
Assay [5] has as its target Murine Ang2 (mouse) (UniProt O35608). The assay is described as follows: neutralization ELISA; coated angiopoietin vs Tie2-Fc. (In general: ELISA stands for enzyme-linked immunosorbent assay.)
Assay [6] addresses Cyno Ang1 (cynomolgus monkey). The description is as above.
Assay [7] concerns the target Murine Ang1 (mouse) (UniProt O08538). Described as above.
Assay [8] addresses Rabbit Ang2 (rabbit) (UniProt G1T9B3). The description is as above.
The target of assay [9] is Rabbit Ang1 (rabbit) (UniProt G1SK98). Described as above.
Assay [10] has as its target Human Ang1 (human) (UniProt Q15389). The assay is described as above.
In assay [11] the target is Cyno Ang2 (cynomolgus monkey). The assay is described as above.
Assay [12] concerns the target Human Ang2 (human) (UniProt O15123). Described as above.
Assay [13] has as its target Murine Ang2 (mouse) (UniProt O35608). The assay is described as follows: angiopoietin:Tie2 neutralization ELISA; coated angiopoietin vs hTie2-Fc.
In assay [14] the target is Cyno Ang1 (cynomolgus monkey). The assay is described as above.
Assay [15] deals with Murine Ang1 (mouse) (UniProt O08538). The assay is described as above.
Assay [16] concerns the target Rabbit Ang1 (rabbit) (UniProt G1SK98). The description is as above.
The target in assay [17] is Human Ang1 (human) (UniProt Q15389). The description is as above.
Assay [18] deals with Cyno Ang2 (cynomolgus monkey). The description is as above.
Assay [19] has as its target Human Ang2 (human) (UniProt O15123). Described as above.
Assay [20] concerns the target Tie2 in mouse lung endothelium (mouse) (UniProt Q02858).

pIC50: −log10 of the molar value. Where “and” joins values, the source holds several entries; their conditions need not be identical. Equal values may be shown once. Some results are limits rather than exact numbers.

Broadly, the pIC50 is the negative decadic logarithm of the IC50, by convention in mol/L. Low readings indicate a large IC50, high ones a small IC50. Broadly, the IC90 is the concentration needed for an effect of 90%. High values mean weaker potency, low ones greater potency. For AMG 386 (Fc fusion), the pIC50 in [1] was 8.59 and 8.41; in [2], 10.52; in assay [3], 8.21; in assay [4], 10.54; in assay [5] it was 10.00; in assay [6], 8.54. Further, the pIC50 was 8.57 in [7]; 10.00 in assay [8]; 8.37 in [9]; 8.92 in [10]; 9.77 in [11]; 9.92 in assay [12]. Also, the IC90 is 106 nM and 278 nM in assay [1]; 0.13 nM and 0.15 nM in [2].
As for L1-7(N) (Fc fusion), the pIC50 in assay [3] was less than 5.00; in assay [4], 10.19.
Turning to Fc, the pIC50 in assay [13], in assay [14], in assay [15], in [16], in assay [17] and in assay [18] was less than 5.00 throughout. Besides, the pIC50 in assay [19], in assay [3] and in assay [4] was less than 5.00 in each case.
Turning to “recombinant Ang1 (R&D Systems Inc.) (ligand)”, in assay [20], the Tie2 phosphorylation in mouse lung endothelium came out at 5 fold.
